assay: yeast display, Sf9 membrane polyspecificity reagent, FACS + sequencing; frameworks hold sequencing errors
Outline: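 After 36–48 hours of galactose induction, yeast (Saccharomyces cerevisiae BJ5465) displaying a synthetic nanobody library were stained at 4 °C for 1 hour with 10% biotinylated, detergent-solubilized Sf9 membrane reagent. Streptavidin microbeads enriched the stained cells before FACS sorting into low and high (top ~1%) gates on anti-HA and streptavidin fluorescence. Each clone's polyreactivity label reflects its gate of origin.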

Sequence | polyreactivity (PSR sort gate)
QVQLVESAGGLVQAGGSLRLSCAASGRIFPYNVIGWYRQAPGKERELVAAISSGGTTDYADSVKGRFTISRDNAKNTVYLQMNSLKPEDTAVYYCAATYVYWTWGYDYWGQGTQVTVSS | low polyreactivity
QVQLVESAGGLVQAGGSLRLSCAASGRIYGIYAMGWYRQAPGKERELVASITDGTITNYADSVKGRFTISRDNAKNTVYLQKNSLKPEDTAVYYCAAGTQAHAYVVRPIEMDYWGQGTQVTVSS | low polyreactivity
QVQLVESAGGLVQAGGSLRLSCAASGRNLYQYAMGWYRQAPGKERELVAAITWNGGSTYYADSVKGRFTISRDNAKNTVYLQINSLKPEDTAVYYCAADSVRPWYAYKAHDYWGQGTQVTVSS | low polyreactivity
QVQLVESAGGLVQAGGSLRLSCAASGRTFCGNAMGWYRQAPGKERELVAAITSGGSTYYADSVKGRFTISRDNAKNTVYLQMNSLKPEDTAVYYCATRRIYKWYRYYYWGQGTQVTVSS | high polyreactivity
QVQLVESAGGLVQAGGSLRLSCAASGRTFIQYAMGWYRQAPGKERELVAVIRWSGGRTYYADTVKGRFTISRDNAKNTVYLQMNSLKPEDTAVYYCAKRSGSTFDWGQGTQVTVSS | high polyreactivity
QVQLVESAGGLVQAGGSLRLSCAASGRTFVGNAMGWYRQAPGTERELVADITWSGDITYYADSVKGRFTISRDNAKNTVYLQMNSLKPDDTAVYYCAADYHRRRTDYDYWGQGTQVTESS | low polyreactivity
QVQLVESAGGLVQAGGSLRLSCAASGRTLYRYAMGWYSQAPGKERELVAAIRWSGGSTYYADSVKGRFTISRDNAKNTVYLQMNSLKPEDTAVYYCNAGRSWRRTHYDYWGQGTQVTVSS | high polyreactivity
QVQLVESAGGLVQAGGSLRLSCAASGRTSDGYAMGWSRQAPGKERELVAGITEGGGDTYYADSVKGRFTISRDNAKNTVYLQMNSLKTEDTAVYYCAKDLRRYLSWWYRYPYDYWGQGTQVTVSS | low polyreactivity
QVQLVESAGGLVQAGGSLRLSCAASGRTSVIYAMGWYRQAPGKERELVASIRRGGSTSYADSVKGRFTISRDNAKNTVYLQMNSLKPEDTAVYYCARETLGGTYLGDYWGQGTQVTVSS | high polyreactivity
QVQLVESAGGLVQAGGSLRLSCAASGSILTSYAMGWYRQAPGKERELVAAINGSGGSTFYADSVKGRFTISRDNAKNTVYLQMNSLKPEDTAVYYCNTGGPRGTTYDYWGQGTQVTVSS | low polyreactivity
QVQLVESAGGLVQAGGSLRLSCAASGSLFSLYAMGWYRQAPGKERELVAAITQSGGTKFYADSVKGRFTISRDNAKNTVYLQMNRLKPEDTAVYYCAAEWYRCYVPLGVAGEYDYWGQGTQVTVSS | low polyreactivity
QVQLVESAGGLVQAGGSLRLSCAASGSTFGLNAMGRYRQAPGKERELVAAITRSGATTYYADSVKGRFTISRDNAKNTVYLKMNSLKPEDTAVYYCNKVYRPYTKRYYWGQGTQVTVSS | high polyreactivity
QVQLVESAGGLVQAGGSLRLSCAASGSTFTYKGMGWYRQAPGKERELVASISSRGGSTYYADSVKGRFTISRDNAKNTVYLQMNSLKPDDTAVYYCAAVARARARTPWLGRGYWGQVTQVTVSS | high polyreactivity
QVQLVESAGGLVQAGGSLRLSCAASGSTFYAYALGWYRQAPGKERELVAAISSDGTNYADSVKGRFTISRDNAKNTVYLQMNSLKPEDTSVYYCDADLLLYSSQDNDYWGQGTQVPVSS | low polyreactivity
QVQLVESAGGLVQAGGSLRLSCAASGSTLHYYAMGRYRQAPGKERELVAGISGSGGSTYYADSVKGRFTISRDNAKNTVYLQMNSLKPEDTAVYYCAADAYVSSQPMDYWGQGTQVTVSS | high polyreactivity
QVQLVESAGGLVQAGGSLRLSCAASGSTLYGYVMGWYRQAPGKERELVAAITWSSGYTYYADSVKGRFTISRDNAKITVYLQMNILKPVDTAVYYCAVRDRSPYGYYYWGQGTQVTVSS | low polyreactivity
QVQLVESAGGLVQAGGSLRLSCAPSGFTFALYAMRWYRQAPGNERELVAANTRSGRTKYADSVKGRFTISRDNAKNTVYLQMNSLKPEDTAVYYCAALFRYYVTTRFNYWGQGTQVTVSS | high polyreactivity
QVQLVESAGGLVQAGGSLRLSCDASGRILKYYDIGWYRQAPGKEWELVAAISVSGTSTYYADSVKGRFTISRDNAKNTVYLQMNSLKPEDTAVYYCATATGRYSFDYWGQGTQVTVSS | low polyreactivity
QVQLVESAGGLVQAGGSLRLSCDASGRTFRYYVMGWYRQAPGNERELVAAISWSGCRTNYADSVKGRYTISGDNAKNTVYLQMNSLKPEDSAVYYCNAPRPALRRYDYWGQGTQVTVSS | high polyreactivity
QVQLVESAGGLVQAGGSLRLSCPASGSIFQPYAMGWYRQAPGKERELVAAINGRGGSTHYADSVKGRFTISRDNAKNTVYLQMNSLKPEDTAVYYCAARYYRDYRWYTYAYDYWGQGTQVTVSS | high polyreactivity
QVQLVESAGGLVQAGGSLRLSSAASGRIFLYYAMGWYRQAPGKEREFVAAITYIGGSTYYADSVKGRFTISRDNAKNTVYLQMNSLKPEDTAVYWGEGTQVTVSS | low polyreactivity
QVQLVESAGGLVQAGGSLSISCAASGLTLTRNAMGWYRQAPGKERELVAAISGRGGSTYYADSVKGRFTISRDNAKNTVYLQMNSLKPEDTAVYYCAATVQYSPIYDYWGQGTQVTVSS | high polyreactivity

Sequence | polyreactivity (PSR sort gate)
QVQLVESAGGLVQAGGSLSLSCAASAFTYVCNRMGWNRQAPGKERELVAAITGSGSTNYADSVKGRFTISRDNAKNTVYLQMNSLKPEDTAVYYCATSDRQVKYDYWGQGTQVPVSS | low polyreactivity
QVQLVESAGGLVQAGGSLSLSCAASGGMFTGYAMGWDRQAPGTERELVAAINTGGNTYYADSVKGRFTISRDNAKNTVYLQMNSLKPEDTAVYYCAAVYFPRSNTARRYGYWGQGTQVTVSS | high polyreactivity
QVQLVESAGGLVQAGGSLSLSCAASGINFAWYVMGWYRQEPGKERELVAAITQSGGSTFYADSVKGRFTISRDNAKNTVYLQMNSLKPEDTAVYYCAAESRSTWIHSRDYWGQGTQVTVSS | low polyreactivity
QVQLVESAGGLVQAGGSLSLSCAASGITFYRYVMGWYRQAPGKERELVAAISVSGGRTYYADSVKGRFTISRDNAKNTVYLQMNSLKPEDTAVYYCAARWAGSKSATVQYDYWGQGTQVTVSS | high polyreactivity
QVQLVESAGGLVQAGGSLSLSCAASGTFYLYARGWYRQAPGKQRELVAAISGSGSTNYADSVKGRFTISRDNAKNTVYLQMNSLKPEDTAVYYCAAYQRYDSVTGARYEYDYWGQGTQVTVSS | low polyreactivity
QVQLVESAGGLVQAGGTLRLSCAASGRIIYRYGMGWYRQAPGKERELVASITRGGSTYYADSVKGRFTISRDNAKNTVYLQMNSLKPEDTAVYYCATKSSAGYDYWGQGTQVTVSS | low polyreactivity
QVQLVESAGGLVQAGGTLRLSCAASGSIFQFYAMGWYRHAPGKERELVAVITTSGVSTYYADSVKGRFTISRDNAKNTVYLQMNSLKPEDTGVYYCAARQWTSASYDYWGQGSQVTVSS | low polyreactivity
QVQLVESAGGLVQAGVSLRLSCAASGLTFVQYAMGWYIQAPGKERELVAAISRSGGSTYYADSVKGRFTISRDNAKNTVYLQMNSMKPEDTAVYYCNAVIWLTSSEYWGQGTQVTVSS | high polyreactivity
QVQLVESAGGLVQEGGSLRLSCAASGRTFYNAMGGYRQAPGKERELVAAISANGGSTTYADSVKGRFTISRDNAKNTVYLQMNSLKPEDTAVYYCNTYYWYSGSPYDYWGQGTQVTVSS | low polyreactivity
QVQLVESAGGLVQEGGSLRLSCAASGSTFPYYAMGWYRQAPGKERELVAAISQNGGSTYYADSVKGRFTISRDNAMNTVYLQMNRLKPEDTAVYYCNADGVGGEYRLSGYAYWGQGTQVTVSS | low polyreactivity
QVQLVESAGGVVQAGGSLRLSCAASGRIFGYNTMGWYRQAPGKERELVAAISGSGASTYYADSVKGRFTISRDNAKNTVYLQMNSLKAEDTAVYYCAAKAYYSTSPYHREHDSWGQGTQVTVSS | low polyreactivity
QVQLVESAGVLVQAGGSLRFSCAPSGIIFPQYAMGWYRQAPGKARELVAAITYSGDGTYYADSVKGRFTISRDNAKYTVYLLMYSLKPDDTAVYYCAAFPRDPYKEYDYWGQGTQLTVSS | low polyreactivity
QVQLVESAGYLVQAAASLRLSCAASGLIFVYYALGWYRQAPGKERELVAFITSVGSTYYGDSVKGRFTISRDNAKYTVYLQMNSVNPEDTAVYYCAAEWEFYGFDYWGQGTQVTVSA | low polyreactivity
QVQLVESAVGLVQAGGSLRLSSAASGFTFLNYAMGSYRQAPGKVRELVAAITWSGGNTYYADSVMGRFTISRDNAKNTVYLQMNSLKPEDTAVYYCAADYRARGKFYWGQGTQVTVSS | high polyreactivity
QVQLVESAVGLVQAGVSLRLSSAASGFIYYAYALGWYRQAPGKERELVAGISDSGASTYADSVKGRFTISRDNAKNTVYLQMNSLKPEDTAVYYCATTGYLSTKDYDEYGYWGQGTQVTVSS | low polyreactivity
QVQLVESCGDLVQAGASLRLSCAASGRIFVYYAMGWYRQAPGKERELVALITSLGSTNYSDSVKGRFTISRDNGKNCVYLQMNSLKPEDTAVYYCAAEWEYYGFDYWGQGTQVTVSS | low polyreactivity
QVQLVESCGGIVQAGGSLRLSCAASGRIFGENAMGWYRQEPGKEREFVAVISISDASTYYADSVKGRFTISRDNAKNTVFFQMNSLKPEDTAVYYCAAEGPDSYSMDYWGQGTQVTVSS | low polyreactivity
QVQLVESCGGLLQAGGSLPLSCPASGSISSYYAMGWYRQAPGKERELVASITSGASTNYADSVKGRFTISRDNAKNTVYLQMNSLKPEDTAVYYCAAYVVTYYYGTGYYSYDYWGQGSQVTVSS | low polyreactivity
QVQLVESCGGLVKAGGSLRLSCDASGSTFYNNAMGWYRQAPGKERELVAVITSGGGSTYYADSVKGRFTISRDNAKNTVYLQMNSLKPEDTAVYYCAAKRPFYKYLWLDVRGNYWGQGTQVTVSS | low polyreactivity
QVQLVESCGGLVQAGCSLRLSCAASGRTFAYNAMGWYRQAPGKERELVADITSGGSTYYADSVKGRFTISRDNAKNTVYLQMNSLKPEDTAVYYCAAYPQFWYWDYNYWGQGTQVTVSS | high polyreactivity
QVQLVESCGGLVQAGCSLRLSCAASGRTFVWYAMGWNRQAPGKERELVAAITLSGGSTYYADSVKGRFTISRDNAKNTVFLQMNSLIPEDTAVYYCAADGTYRPEDYDYWGQGTQVTVSS | low polyreactivity
